Reference: patent US20050287542A1
Each block holds one substance with its values, some of them ahead of it.

What was measured:
[1] = molecular target: endogenous CBP/p300 in HEK293 cells; assay: cell-based or functional assay
[2] = molecular target: full-length p300 (exogenous, CMV expression vector); assay: cell-based or functional assay
[3] = molecular target: CBP KIX variant Y650A (Example 20) (UniProt P45481); assay: fluorescence polarization
CBP KIX variant I660A = CBP KIX variant I660A (UniProt P45481); assay: fluorescence polarization
CBP KIX variant I660A, sequence (P45481 586-665 I660A limits assumed): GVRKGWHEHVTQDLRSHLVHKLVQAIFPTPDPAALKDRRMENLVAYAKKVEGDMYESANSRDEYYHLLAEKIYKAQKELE

CBP KIX variant I657A = CBP KIX variant I657A (UniProt P45481); assay: fluorescence polarization
CBP KIX variant I657A, sequence (P45481 586-665 I657A limits assumed): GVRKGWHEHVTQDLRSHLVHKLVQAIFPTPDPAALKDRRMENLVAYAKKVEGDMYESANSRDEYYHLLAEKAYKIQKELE

CBP KIX variant E655A = CBP KIX variant E655A (UniProt P45481); assay: fluorescence polarization
CBP KIX variant E655A, sequence (P45481 586-665 E655A limits assumed): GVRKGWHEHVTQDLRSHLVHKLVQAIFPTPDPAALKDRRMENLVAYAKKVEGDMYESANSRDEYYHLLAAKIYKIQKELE

CBP KIX variant K606A = CBP KIX variant K606A (UniProt P45481); assay: fluorescence polarization
CBP KIX variant K606A, sequence (P45481 586-665 K606A limits assumed): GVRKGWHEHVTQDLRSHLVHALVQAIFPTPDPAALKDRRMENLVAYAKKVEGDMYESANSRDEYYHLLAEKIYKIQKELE

CBP KIX variant K662A = CBP KIX variant K662A (UniProt P45481); assay: fluorescence polarization
CBP KIX variant K662A, sequence (P45481 586-665 K662A limits assumed): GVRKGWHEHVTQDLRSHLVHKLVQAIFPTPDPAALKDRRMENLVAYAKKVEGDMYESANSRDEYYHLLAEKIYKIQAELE

[4] = molecular target: GST-KIXY650A (Y650A variant of CBP KIX) (UniProt P45481); assay: fluorescence polarization
GST-KIXY650A (Y650A variant of CBP KIX), sequence (P45481 586-665 Y650A limits assumed): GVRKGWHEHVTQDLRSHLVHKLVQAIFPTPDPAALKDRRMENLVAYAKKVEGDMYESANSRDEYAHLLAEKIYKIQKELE

CBP KIX variant L603A = CBP KIX variant L603A (UniProt P45481); assay: fluorescence polarization
CBP KIX variant L603A, sequence (P45481 586-665 L603A limits assumed): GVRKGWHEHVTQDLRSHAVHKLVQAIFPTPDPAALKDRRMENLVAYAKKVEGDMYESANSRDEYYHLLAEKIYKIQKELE

CBP KIX variant Q661A = CBP KIX variant Q661A (UniProt P45481); assay: fluorescence polarization
CBP KIX variant Q661A, sequence (P45481 586-665 Q661A limits assumed): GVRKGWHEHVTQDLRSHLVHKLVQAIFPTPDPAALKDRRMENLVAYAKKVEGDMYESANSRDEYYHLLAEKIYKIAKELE

CBP KIX variant Y658F = CBP KIX variant Y658F (UniProt P45481); assay: fluorescence polarization
CBP KIX variant Y658F, sequence (P45481 586-665 Y658F limits assumed): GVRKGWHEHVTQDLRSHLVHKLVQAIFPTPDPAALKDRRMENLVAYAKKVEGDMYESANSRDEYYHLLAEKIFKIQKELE

[5] = molecular target: CBP KIX variant LL652-3AA (UniProt P45481); assay: fluorescence polarization
CBP KIX variant LL652-3AA, sequence (P45481 other isoform, or with tags, fused parts or gaps mutant limits assumed): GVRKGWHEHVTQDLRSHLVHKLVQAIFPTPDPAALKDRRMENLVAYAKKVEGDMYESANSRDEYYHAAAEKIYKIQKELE

CBP KIX variant L599A = CBP KIX variant L599A (UniProt P45481); assay: fluorescence polarization
CBP KIX variant L599A, sequence (P45481 586-665 L599A limits assumed): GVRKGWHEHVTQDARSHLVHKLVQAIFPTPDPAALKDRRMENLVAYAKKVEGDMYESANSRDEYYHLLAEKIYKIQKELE

CBP KIX variant Y658A = CBP KIX variant Y658A (UniProt P45481); assay: fluorescence polarization
CBP KIX variant Y658A, sequence (P45481 586-665 Y658A limits assumed): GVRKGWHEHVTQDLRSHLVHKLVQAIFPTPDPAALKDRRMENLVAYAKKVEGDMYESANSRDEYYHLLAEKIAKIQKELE

[6] = molecular target: HisKIX (His-tagged CBP KIX domain) (UniProt P45481); assay: fluorescence polarization at 150 µM HisKIX
HisKIX (His-tagged CBP KIX domain), sequence (P45481 586-672): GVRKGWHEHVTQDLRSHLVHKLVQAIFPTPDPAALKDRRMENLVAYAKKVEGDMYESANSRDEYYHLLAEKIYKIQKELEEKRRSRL

[7] = molecular target: HisKIX (His-tagged CBP KIX domain) (UniProt P45481); assay: fluorescence polarization at 325 µM HisKIX
[8] = molecular target: catalytic subunit of cAMP-dependent protein kinase (PKA); assay: cell-based or functional assay

CBP KIX variant Y650A (Example 20), sequence (P45481 586-665 Y650A limits assumed): as the sequence (P45481 586-665 Y650A limits assumed) above

Substance: KID-AB^P (full-length CREB KID domain, residues 119-148, phosphorylated), fluorescein-labelled (peptide)
Kd [3]: 9.4 µM
ΔΔG against wild type CBP KIX [3]: 1.8 kcal/mol
Kd (CBP KIX variant I660A): 270 nM
ΔΔG against wild type CBP KIX (CBP KIX variant I660A): -0.26 kcal/mol
Kd (CBP KIX variant I657A): 1900 nM
ΔΔG against wild type CBP KIX (CBP KIX variant I657A): 0.9 kcal/mol
Kd (CBP KIX variant E655A): 710 nM
ΔΔG against wild type CBP KIX (CBP KIX variant E655A): 0.32 kcal/mol
Kd (CBP KIX variant K606A): 2300 nM
ΔΔG against wild type CBP KIX (CBP KIX variant K606A): 1 kcal/mol
Kd (CBP KIX variant K662A): 4.8 µM
ΔΔG against wild type CBP KIX (CBP KIX variant K662A): 1.5 kcal/mol
fold less stable than the wild type GST-KIX complex [4]: 15 fold
Kd (CBP KIX variant L603A): 3.4 µM
ΔΔG against wild type CBP KIX (CBP KIX variant L603A): 1.2 kcal/mol
Kd (CBP KIX variant Q661A): 930 nM
ΔΔG against wild type CBP KIX (CBP KIX variant Q661A): 0.48 kcal/mol
Kd (CBP KIX variant Y658F): 26 µM
ΔΔG against wild type CBP KIX (CBP KIX variant Y658F): 2.5 kcal/mol
Kd [5]: 2900 nM
ΔΔG against wild type CBP KIX [5]: 1.2 kcal/mol
Kd (CBP KIX variant L599A): 1100 nM
ΔΔG against wild type CBP KIX (CBP KIX variant L599A): 0.58 kcal/mol
Kd (CBP KIX variant Y658A): 142 µM
ΔΔG against wild type CBP KIX (CBP KIX variant Y658A): 3.5 kcal/mol

Substance: PKI^A21C alkylated with bromoacetamide (peptide)
IC50, inhibition of PKA phosphotransferase activity [8]: > 1 µM

Further lines, results first:

fold activation of Gal4 luciferase reporter in HEK293 cells, with forskolin [1]: 7.5 fold
fold activation of Gal4 luciferase reporter, with forskolin and exogenous p300 [2]: 20 fold
Substance: Gal4 DBD (residues 1-147) fusion of KID-AB (from UniProt P04386 1-147)

change in polarization [6]: 61 mP
Substance: KID-AB^U, fluorescein-labelled (peptide)

change in polarization [7]: 76 mP
Substance: KID-B^U, fluorescein-labelled (peptide)
